From patent US5695963

Assays:
[1] = target: mouse aryl hydrocarbon receptor nuclear transport protein (ARNT) (mouse) (UniProt P53762)
EPAS1 (Homo sapiens) = EPAS1 (Homo sapiens) (UniProt Q99814); test: cell_activity; conditions: 293 cells, endogenous ARNT
[2] = system: EPAS1/ARNT heterodimer (cotransfected) (Homo sapiens (EPAS1) / Mus musculus? (ARNT)); test: cell_activity; conditions: ARNT-deficient c4 cells; EPAS1 alone 1.8-fold; Hepa1c1c7 with EPAS1 9-fold
[3] = target: HIF-1alpha (Homo sapiens) (UniProt Q16665); test: cell_activity; conditions: 293 cells, larger amounts of plasmid
Chain of HIF-1alpha (Homo sapiens) (Q16665 whole entry): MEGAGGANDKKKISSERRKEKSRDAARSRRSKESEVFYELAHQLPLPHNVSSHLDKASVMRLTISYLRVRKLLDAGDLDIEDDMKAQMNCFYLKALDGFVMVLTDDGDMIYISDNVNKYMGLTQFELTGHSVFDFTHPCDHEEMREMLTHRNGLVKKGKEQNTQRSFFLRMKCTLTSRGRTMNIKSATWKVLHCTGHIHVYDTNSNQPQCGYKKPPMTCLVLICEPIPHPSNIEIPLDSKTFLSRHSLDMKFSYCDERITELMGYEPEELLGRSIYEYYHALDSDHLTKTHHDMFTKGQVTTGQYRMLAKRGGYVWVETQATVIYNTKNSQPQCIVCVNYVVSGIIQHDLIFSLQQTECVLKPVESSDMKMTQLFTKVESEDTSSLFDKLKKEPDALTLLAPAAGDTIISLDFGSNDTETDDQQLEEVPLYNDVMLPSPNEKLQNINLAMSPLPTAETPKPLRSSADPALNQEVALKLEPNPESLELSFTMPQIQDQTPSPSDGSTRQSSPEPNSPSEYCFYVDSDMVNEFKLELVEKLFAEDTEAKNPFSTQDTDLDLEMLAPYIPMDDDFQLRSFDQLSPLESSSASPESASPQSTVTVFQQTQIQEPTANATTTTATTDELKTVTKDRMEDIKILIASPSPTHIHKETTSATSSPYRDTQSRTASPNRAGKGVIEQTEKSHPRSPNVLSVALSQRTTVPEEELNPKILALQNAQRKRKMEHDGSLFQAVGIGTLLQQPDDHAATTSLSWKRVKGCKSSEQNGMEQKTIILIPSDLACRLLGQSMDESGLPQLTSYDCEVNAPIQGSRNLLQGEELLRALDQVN

Chain of EPAS1 (Homo sapiens) (Q99814 whole entry A60E): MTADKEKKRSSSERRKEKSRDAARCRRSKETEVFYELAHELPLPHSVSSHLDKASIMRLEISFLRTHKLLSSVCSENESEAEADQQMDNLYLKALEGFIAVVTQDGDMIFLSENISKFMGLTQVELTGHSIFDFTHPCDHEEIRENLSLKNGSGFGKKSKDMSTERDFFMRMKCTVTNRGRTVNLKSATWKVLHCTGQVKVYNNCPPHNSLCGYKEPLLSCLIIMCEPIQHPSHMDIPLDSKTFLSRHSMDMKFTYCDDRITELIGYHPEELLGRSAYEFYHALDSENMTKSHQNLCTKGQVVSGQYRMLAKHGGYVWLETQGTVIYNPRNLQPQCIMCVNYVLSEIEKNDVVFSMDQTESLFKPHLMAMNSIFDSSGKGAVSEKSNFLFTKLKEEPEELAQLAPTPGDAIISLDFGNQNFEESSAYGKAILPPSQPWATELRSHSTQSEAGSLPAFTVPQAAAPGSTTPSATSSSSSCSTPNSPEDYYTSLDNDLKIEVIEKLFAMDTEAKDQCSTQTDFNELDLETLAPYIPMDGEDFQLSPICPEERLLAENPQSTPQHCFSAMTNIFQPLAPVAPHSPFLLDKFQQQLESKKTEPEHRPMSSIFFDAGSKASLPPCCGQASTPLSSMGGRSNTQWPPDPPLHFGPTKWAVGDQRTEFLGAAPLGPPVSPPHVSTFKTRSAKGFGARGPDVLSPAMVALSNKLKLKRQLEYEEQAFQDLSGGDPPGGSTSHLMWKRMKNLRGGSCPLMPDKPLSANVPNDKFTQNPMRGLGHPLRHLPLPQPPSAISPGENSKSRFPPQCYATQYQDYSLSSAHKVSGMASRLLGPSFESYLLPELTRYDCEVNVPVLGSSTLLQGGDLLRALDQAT

Substance	luciferase activity of the pRE-Elb-LUC reporter in ARNT-deficient c4 hepatoma cells [1] [fold]	activity (fold induction) (EPAS1 (Homo sapiens))	activity (fold induction) [2]	activity (fold induction) [3]
human EPAS1 protein	12	–	–	–
three copies of 50-nt EPO hypoxia-inducible enhancer in luciferase reporter	–	12	12	7
